Data reported in US20240109972A1, “ANTIBODY AND TAXANE COMBINATION THERAPY” (Genmab A/S, priority 2020, published 2024).

Experiment: GEN1046 in combination with docetaxel in metastatic NSCLC subjects, adverse effects
Type: in vivo, human
Experimental: Docetaxel was administered at a dose of 55 mg/m^2 or 75 mg/m^2 depending on the number of prior Dose Limiting Toxicities observed. The maximum tested dose of docetaxel was be 75 mg/m^2.
Subjects with a histological or cytological diagnosis of non-squamous NSCLC must not have an EGFR-sensitizing mutation and/or ALK translocation/ROS1 rearrangement. EGFR sensitizing mutations are those mutations that are amenable to treatment with an approved TKI. Documentation of EGFR and ALK status should be available per local assessment.

GEN1046: PD-L1×4-1BB bispecific antibody: PD-L1-547-FEAL combined with CD137-009-HC7LC2-FEAR (SEQ ID NOs: 1, 5, 21, 19; 8, 12, 22, 20)
0: Alopecia Grade 2, GEN1046-related (GEN1046 + 55 mg/m^2 Docetaxel) | Alopecia Grade 3, GEN1046-related (GEN1046 + 55 mg/m^2 Docetaxel) | Alopecia Grade 4, GEN1046-related (GEN1046 + 55 mg/m^2 Docetaxel) | Alopecia Grade 5, GEN1046-related (GEN1046 + 55 mg/m^2 Docetaxel) | Anemia Grade 1, GEN1046-related (GEN1046 + 55 mg/m^2 Docetaxel) | Anemia Grade 2, GEN1046-related (GEN1046 + 55 mg/m^2 Docetaxel) | Anemia Grade 4, GEN1046-related (GEN1046 + 55 mg/m^2 Docetaxel) | Anemia Grade 5, GEN1046-related (GEN1046 + 55 mg/m^2 Docetaxel) | Blood alkaline phosphatase increase Grade 1, GEN1046-related (GEN1046 + 55 mg/m^2 Docetaxel) | Blood alkaline phosphatase increase Grade 3, GEN1046-related (GEN1046 + 55 mg/m^2 Docetaxel) | Blood alkaline phosphatase increase Grade 4, GEN1046-related (GEN1046 + 55 mg/m^2 Docetaxel) | Blood alkaline phosphatase increase Grade 5, GEN1046-related (GEN1046 + 55 mg/m^2 Docetaxel) | Decreased appetite Grade 1, GEN1046-related (GEN1046 + 55 mg/m^2 Docetaxel) | Decreased appetite Grade 3, GEN1046-related (GEN1046 + 55 mg/m^2 Docetaxel) | Decreased appetite Grade 4, GEN1046-related (GEN1046 + 55 mg/m^2 Docetaxel) | Decreased appetite Grade 5, GEN1046-related (GEN1046 + 55 mg/m^2 Docetaxel) | Dyspnea Grade 1, GEN1046-related (GEN1046 + 55 mg/m^2 Docetaxel) | Dyspnea Grade 3, GEN1046-related (GEN1046 + 55 mg/m^2 Docetaxel) | Dyspnea Grade 4, GEN1046-related (GEN1046 + 55 mg/m^2 Docetaxel) | Dyspnea Grade 5, GEN1046-related (GEN1046 + 55 mg/m^2 Docetaxel) | Fatigue Grade 1, GEN1046-related (GEN1046 + 55 mg/m^2 Docetaxel) | Fatigue Grade 4, GEN1046-related (GEN1046 + 55 mg/m^2 Docetaxel) | Fatigue Grade 5, GEN1046-related (GEN1046 + 55 mg/m^2 Docetaxel) | Hypokalemia Grade 1, GEN1046-related (GEN1046 + 55 mg/m^2 Docetaxel) | Hypokalemia Grade 3, GEN1046-related (GEN1046 + 55 mg/m^2 Docetaxel) | Hypokalemia Grade 4, GEN1046-related (GEN1046 + 55 mg/m^2 Docetaxel) | Hypokalemia Grade 5, GEN1046-related (GEN1046 + 55 mg/m^2 Docetaxel) | Hypomagnesaemia Grade 2, GEN1046-related (GEN1046 + 55 mg/m^2 Docetaxel) | Hypomagnesaemia Grade 3, GEN1046-related (GEN1046 + 55 mg/m^2 Docetaxel) | Hypomagnesaemia Grade 4, GEN1046-related (GEN1046 + 55 mg/m^2 Docetaxel) | Hypomagnesaemia Grade 5, GEN1046-related (GEN1046 + 55 mg/m^2 Docetaxel) | Nausea Grade 2, GEN1046-related (GEN1046 + 55 mg/m^2 Docetaxel) | Nausea Grade 3, GEN1046-related (GEN1046 + 55 mg/m^2 Docetaxel) | Nausea Grade 4, GEN1046-related (GEN1046 + 55 mg/m^2 Docetaxel) | Nausea Grade 5, GEN1046-related (GEN1046 + 55 mg/m^2 Docetaxel) | Neutrophil count decreased Grade 1, GEN1046-related (GEN1046 + 55 mg/m^2 Docetaxel) | Neutrophil count decreased Grade 2, GEN1046-related (GEN1046 + 55 mg/m^2 Docetaxel) | Neutrophil count decreased Grade 4, GEN1046-related (GEN1046 + 55 mg/m^2 Docetaxel) | Neutrophil count decreased Grade 5, GEN1046-related (GEN1046 + 55 mg/m^2 Docetaxel) | Pyrexia Grade 2, GEN1046-related (GEN1046 + 55 mg/m^2 Docetaxel) | Pyrexia Grade 3, GEN1046-related (GEN1046 + 55 mg/m^2 Docetaxel) | Pyrexia Grade 4, GEN1046-related (GEN1046 + 55 mg/m^2 Docetaxel) | Pyrexia Grade 5, GEN1046-related (GEN1046 + 55 mg/m^2 Docetaxel) | Sinus tachycardia Grade 1, GEN1046-related (GEN1046 + 55 mg/m^2 Docetaxel) | Sinus tachycardia Grade 3, GEN1046-related (GEN1046 + 55 mg/m^2 Docetaxel) | Sinus tachycardia Grade 4, GEN1046-related (GEN1046 + 55 mg/m^2 Docetaxel) | Sinus tachycardia Grade 5, GEN1046-related (GEN1046 + 55 mg/m^2 Docetaxel) | Total treated subjects with related TEAEs Grade 4, GEN1046-related (GEN1046 + 55 mg/m^2 Docetaxel) | Total treated subjects with related TEAEs Grade 5, GEN1046-related (GEN1046 + 55 mg/m^2 Docetaxel) | Vaginal hemorrhage Grade 2, GEN1046-related (GEN1046 + 55 mg/m^2 Docetaxel) | Vaginal hemorrhage Grade 3, GEN1046-related (GEN1046 + 55 mg/m^2 Docetaxel) | Vaginal hemorrhage Grade 4, GEN1046-related (GEN1046 + 55 mg/m^2 Docetaxel) | Vaginal hemorrhage Grade 5, GEN1046-related (GEN1046 + 55 mg/m^2 Docetaxel) | Vomiting Grade 1, GEN1046-related (GEN1046 + 55 mg/m^2 Docetaxel) | Vomiting Grade 3, GEN1046-related (GEN1046 + 55 mg/m^2 Docetaxel) | Vomiting Grade 4, GEN1046-related (GEN1046 + 55 mg/m^2 Docetaxel) | Vomiting Grade 5, GEN1046-related (GEN1046 + 55 mg/m^2 Docetaxel) | Amylase increased Grade 2, GEN1046-related (GEN1046 + 75 mg/m^2 Docetaxel) | Amylase increased Grade 3, GEN1046-related (GEN1046 + 75 mg/m^2 Docetaxel) | Amylase increased Grade 4, GEN1046-related (GEN1046 + 75 mg/m^2 Docetaxel) | Amylase increased Grade 5, GEN1046-related (GEN1046 + 75 mg/m^2 Docetaxel) | Anemia Grade 1, GEN1046-related (GEN1046 + 75 mg/m^2 Docetaxel) | Anemia Grade 3, GEN1046-related (GEN1046 + 75 mg/m^2 Docetaxel) | Anemia Grade 4, GEN1046-related (GEN1046 + 75 mg/m^2 Docetaxel)
manageable and well tolerated: Tolerability of the combination (GEN1046 100 mg with Docetaxel 55 or 75 mg/m^2)
1: Alopecia Grade 1, GEN1046-related (GEN1046 + 55 mg/m^2 Docetaxel) | Blood alkaline phosphatase increase Grade 2, GEN1046-related (GEN1046 + 55 mg/m^2 Docetaxel) | Decreased appetite Grade 2, GEN1046-related (GEN1046 + 55 mg/m^2 Docetaxel) | Dyspnea Grade 2, GEN1046-related (GEN1046 + 55 mg/m^2 Docetaxel) | Fatigue Grade 3, GEN1046-related (GEN1046 + 55 mg/m^2 Docetaxel) | Hypokalemia Grade 2, GEN1046-related (GEN1046 + 55 mg/m^2 Docetaxel) | Hypomagnesaemia Grade 1, GEN1046-related (GEN1046 + 55 mg/m^2 Docetaxel) | Nausea Grade 1, GEN1046-related (GEN1046 + 55 mg/m^2 Docetaxel) | Neutrophil count decreased Grade 3, GEN1046-related (GEN1046 + 55 mg/m^2 Docetaxel) | Pyrexia Grade 1, GEN1046-related (GEN1046 + 55 mg/m^2 Docetaxel) | Sinus tachycardia Grade 2, GEN1046-related (GEN1046 + 55 mg/m^2 Docetaxel) | Vaginal hemorrhage Grade 1, GEN1046-related (GEN1046 + 55 mg/m^2 Docetaxel) | Vomiting Grade 2, GEN1046-related (GEN1046 + 55 mg/m^2 Docetaxel) | Amylase increased Grade 1, GEN1046-related (GEN1046 + 75 mg/m^2 Docetaxel) | Anemia Grade 2, GEN1046-related (GEN1046 + 75 mg/m^2 Docetaxel)
4: Total treated subjects with related TEAEs Grade 1, GEN1046-related (GEN1046 + 55 mg/m^2 Docetaxel) | Total treated subjects with related TEAEs Grade 2, GEN1046-related (GEN1046 + 55 mg/m^2 Docetaxel)
2: Fatigue Grade 2, GEN1046-related (GEN1046 + 55 mg/m^2 Docetaxel)
3: Anemia Grade 3, GEN1046-related (GEN1046 + 55 mg/m^2 Docetaxel) | Total treated subjects with related TEAEs Grade 3, GEN1046-related (GEN1046 + 55 mg/m^2 Docetaxel)
